Reference: FireProtDB (doi:10.1093/protein/15.10.817)

Conditions: Rattus norvegicus, pH 7, Thermal, CD, HEPES 10 mM, whole UniProt chain shown

B1: High mobility group protein B1 wild type, P63159 (protein)
chain: MGKGDPKKPRGKMSSYAFFVQTCREEHKKKHPDASVNFSEFSKKCSERWKTMSAKEKGKFEDMAKADKARYEREMKTYIPPKGETKKKFKDPNAPKRPPSAFFLFCSEYRPKIKGEHPGLSIGDVAKKLGEMWNNTAADDKQPYEKKAAKLKEKYEKDIAAYRAKGKPDAAKKGVVKAEKSKKKKEEEDDEEDEEDEEEEEEEEDEDEEEDDDDE
unfolding free energy (20 °C, NiSO4 1 mM): 2.7 kcal/mol
Tm (NiSO4 1 mM): 40.6 °C
unfolding enthalpy (van 't Hoff) (NiSO4 1 mM): 35.7 kcal/mol
Tm: 40.6 °C
unfolding enthalpy (van 't Hoff): 35.7 kcal/mol
